Earlier results on two substances are cited in publication PMC5035964.

Targets include CD46 (Homo sapiens) (UniProt P15529); Nectin-4 (Homo sapiens) (UniProt Q96NY8); SLAMF1 (Homo sapiens) (UniProt Q13291).
Sequence of UniProt Q96NY8 (Q96NY8 32-510): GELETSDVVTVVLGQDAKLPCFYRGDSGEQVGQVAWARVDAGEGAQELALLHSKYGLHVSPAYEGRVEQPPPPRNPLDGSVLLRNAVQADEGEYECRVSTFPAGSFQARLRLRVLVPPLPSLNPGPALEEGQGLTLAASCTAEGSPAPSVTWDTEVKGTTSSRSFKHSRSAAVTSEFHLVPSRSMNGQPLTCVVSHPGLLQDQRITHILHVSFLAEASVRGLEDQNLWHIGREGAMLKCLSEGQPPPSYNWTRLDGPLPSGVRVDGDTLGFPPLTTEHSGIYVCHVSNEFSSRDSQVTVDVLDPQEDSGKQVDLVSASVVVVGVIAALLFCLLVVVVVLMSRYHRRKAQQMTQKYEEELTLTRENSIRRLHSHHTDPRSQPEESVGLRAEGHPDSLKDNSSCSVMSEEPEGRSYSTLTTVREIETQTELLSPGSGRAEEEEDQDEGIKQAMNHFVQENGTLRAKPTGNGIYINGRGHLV
Sequence of UniProt Q13291 (Q13291 21-335): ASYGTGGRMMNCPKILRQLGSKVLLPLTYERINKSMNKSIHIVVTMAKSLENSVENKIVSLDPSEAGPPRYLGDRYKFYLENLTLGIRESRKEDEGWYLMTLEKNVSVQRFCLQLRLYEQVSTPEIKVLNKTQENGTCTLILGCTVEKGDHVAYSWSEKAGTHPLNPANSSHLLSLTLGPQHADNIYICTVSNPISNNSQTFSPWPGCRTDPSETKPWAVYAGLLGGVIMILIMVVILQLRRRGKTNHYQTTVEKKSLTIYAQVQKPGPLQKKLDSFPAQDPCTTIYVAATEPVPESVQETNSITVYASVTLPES
Sequence of UniProt P15529 (P15529 35-392): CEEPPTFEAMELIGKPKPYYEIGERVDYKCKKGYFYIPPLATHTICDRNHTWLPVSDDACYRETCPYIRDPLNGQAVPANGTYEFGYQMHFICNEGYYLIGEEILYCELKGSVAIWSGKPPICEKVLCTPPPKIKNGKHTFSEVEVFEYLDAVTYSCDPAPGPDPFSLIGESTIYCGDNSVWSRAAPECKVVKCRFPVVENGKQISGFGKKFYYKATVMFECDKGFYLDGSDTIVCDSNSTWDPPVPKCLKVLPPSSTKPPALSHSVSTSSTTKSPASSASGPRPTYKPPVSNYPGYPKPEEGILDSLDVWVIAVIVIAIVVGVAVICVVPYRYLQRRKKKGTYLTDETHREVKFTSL

“Measles virus hemagglutinin (H), Edmonston (from UniProt P08362)”: in the series with CD46 (Homo sapiens), the Kd is 79 nM.

Consider “Measles virus hemagglutinin (H) (from UniProt P08362)”, for which the Kd was 20 nM in the series with Nectin-4 (Homo sapiens) and 80 nM with SLAMF1 (Homo sapiens).

By Kd is commonly meant the free concentration of one partner at which half of the binding sites on the other are occupied at equilibrium, for simple one-to-one binding.
